Consider 20 molecules from patent US20240279344A1 (CDR LIFE, published 2024).

B1: M0744 (VHH)
VHH: EVQLVESGGGLVQPGGSLRLSCAASGSIFSINDMDWYRQAPGKQRELVAAITRGGSTNYADSVKGRFTISRDNAKNTVYLQMNSLKPEDTAVYYCNAEVSTETTGWRTWRDYWGQGTQVTVSS
notes: Llama-derived VHH
B2: M0750 (VHH)
VHH: MEVQLVESGGGLVQPGGSLRLSCAASGFTFSRYTMSWVRQAPGEGLEWVSSIGSGGGPTTYANSVKGRFTVSRDNAKNTLWLQMNNLKPEDTALYYCQGGGNRGQGAQVTVSS
notes: Llama-derived VHH
B3: M0738 (VHH)
VHH: EVQLVESGGGLVEAGVSLRLSCAASGRTSENFAMGWFRQAPGNEREFVAAITRNHRTFYKESVKDRFTISRDDAKNTVYLEMNNLVPDDTAVYTCAAKFDPYASASSYYTGYYYWGQGTQVTVSS
notes: Llama-derived VHH
B4: M0735 (VHH)
VHH: EVQLVESGGGLVQAGGSLRLSCAASGLTFRRYTMGWFRQAPGKEREFVAAIVSSDSTNYADSVKGRFTISRDNAKNTVYLEMNSLKPDDTCVYYCAARNSLSLYVSNLGSRYDYWGQGTQVTVSS
notes: Llama-derived VHH
B5: M0734 (VHH)
VHH: EVQLVESGGGLVQAGGSLRVSCAASGLTFSNYAMGWFQQAPGKEREFVAGISWSGVSTYYADFVKGRFTISRDNAKNTVYLQMNSLKPEDTAVYYCAADNRRYSRGTSISTWRSDYDYWGQGTQVTVSS
notes: Llama-derived VHH
B6: M0863 scFv (scFv)
scFv: PEQLMESGGGLVTPGGVLTLTCTASGFSFSSYGVNWVRQAPGKGLEWIGFIFGDGTTYYANWAKGRFTISKTSTTVDLKMTSPTTEDTATYFCARDGYGGYDYIINLWGQGTLVTVSSGGGGSGGGGSGGGGSGGGGASAQVLTQTPASVSAAVGGTVSISCQSSQSVVNNNWLAWYQQKPGQPPKLLIYKASTLESGVPSRFKGSGSGTQFTLTISGVQADDAATYYCQGAYSGNIYYNAFGGGTEVVVK
notes: Rabbit scFv identified by phage display
B7: M0748 (VHH)
VHH: EVQLVESGGGAVQAGGSLRLSCTVSGRPFTKYAWGWFRQPPEKEREFVATSTWDVGSTYYADSAKGRFTISRDNANNIIDLQMNSLKPEDTAVYYCAASNTYSSDITYYAKPMAFNFWGQGTQVTVSS
notes: Llama-derived VHH
B8: M0736 (VHH)
VHH: EVQLVESGGGLVQAGGSLRLSCTVSGRTSSAFAMGWFRQAPGKEREFVAAINLTGGTTNYAESVKGRFTISRDNAKNTGYLGMSSLKPEDTAVYYCAGRNRWSEGREVAPSSYYYWGQGTQVTVSS
notes: Llama-derived VHH
B9: M0864 scFv (scFv)
scFv: QSVKESGGGLVTPGTPLTLTCTVSGFSLSTYAISWVRQAPGKGLEWIGFIDTVDSAYYASWAKGRFTISKTSSTTVDLKMTSPTTEDTATYFCAKLRYGDYGDYTLWGQGTLVTVSSGGGGSGGGGSGGGGSGGGGASELVMTQTPSPVSGAVGGTVTIKCQASQNIYSYLAWYQQKPGQPPKLLIYKASTLASGVPSRVKGSGSGTEYTLTISGVQAADAATYYCQCTYYDSNTFGGGTEVVVK
notes: as for B6
B10: M0740 (VHH)
VHH: EVQLVESGGGLVQPGGSLRLSCLASGFPFSMYTMNWVRQAPGKGLEWVSAISSGGAVTTYADSVKGRFTISRDNAKNTLYLQMSSLKPEDTAVYYCESSNNRGQGTQVTVSS
notes: Llama-derived VHH
B11: M0746 (VHH)
VHH: EVQLVESGGGLVQAGGSLRLSCAASGRTFSNNAMGWFRQGPDQEREFVAAISRSGGGSGGAPLYADSVKGRFTISRDNAKNTMSLSMNSLSPEDTAVYYCAARSLYKVAGSDDLSDYAYWGQGTQVTVSS
notes: Llama-derived VHH
B12: M0862 scFv (scFv)
scFv: PEQLMESGGGLVTPGGVLTLTCTASGFSFSSYGVNWVRQAPGKGLEWIGFIFGDGTTYYANWAKGRFTISKTSTTVDLKMTSPTTEDTATYFCARDGYGGYDYIINLWGQGTLVTVSSGGGGSGGGGSGGGGSGGGGASAQVLTQTPASVSAAVGGTVSISCQSSQSVVNNNWLAWYQQKPGQPPKLLIYKASTLESGVPSRFKGSGSGTQFTLTISGVQADDAATYYCLGEFSCSSADCHAFGGGTELEIL
notes: as for B6
B13: M0865 scFv (scFv)
scFv: PAALMESGGRLVTPGTPLTLTCTVSGIDLSTFAMTWVRQAPGKGLEWLGIINTGGSAYYTSWAKGRFTISRTSTTVDLKITSPTTEDTATYFCARGDWSSATDLWGQGTLVTISSGGGGSGGGGSGGGGSGGGGASDPDMTQTPSSVSAAVGGTVTINCQASQSVYDNKVLAWYRQKPGQPPKLLIYKASTLASGVPSRFKGRGSGTQFTLTISGVQADDAATYYCLGEFSCSSADCHAFGGGTELEIL
notes: as for B6
B14: M0741 (VHH)
VHH: EVQLVESGGGAVQAGGSQRLSCTVSGRPFTKYAMGWFRQPPEKEREFVATSTWEGSTYYADSVKGRFTISRDNANNIIDLQMNTLKPEDTAVYFCAASNTYNADTTYYAKSTAFNFWGQGTQVTVSS
notes: Llama-derived VHH
B15: M0749 (VHH)
VHH: EVQLVESGGGSVQPGGSLRLSCAASGFTFSRSTMSWVRQAPGKEIEWVSSVSGSGGVTTYADSVKGRFTISRDNAKNTLYLQMSSLKPEDTAVYYCGNSNARGQGTQVTVSS
notes: Llama-derived VHH
B16: M0745 (VHH)
VHH: EVQLVESGGGLVQAGGSLRLSCAVSGRRVSIYGMGWYRLAPGKQREMVASITSGGITTYADSVKGRFSISRDNAKNTVYLQMNSLKPEDTAVYYCNYHDYRVQGESWGQGTQVTVSS
notes: Llama-derived VHH
B17: M0866 scFv (scFv)
scFv: QSVKESGGRLVTPGTPLTLTCTASGFTISSSAISWVRQAPGKGLEYIGIIRSGGTTDYASWAKGRFAISKTSTTVDLKITSPTTEDTATYFCARDPPYITSTYFDLWGQGTLVTVSSGGGGSGGGGSGGGGSGGGGASELVLTQPQSVSGSLGQTVSISCKRARDSVESYDVHWYQQHPGKTPTIVIYKDDQRPSGVPDRFSGSIDSTSNSASLTITGLLAEDEADYFCQSFDGDAVVFGGGTQLTVTG
notes: as for B6
B18: M0751 (VHH)
VHH: EVQLVESGGGLVQPGGSLRLSCAASGFSFRLYTMSWVRQAPGKGLEWVSSISSGGGVVTTYADSAKGRFTISRDNDKNTLTLQMNSLKPEDTAVYYCAQGERRGQGTQVTVSS
notes: Llama-derived VHH
B19: M0737 (VHH)
VHH: EVQLVESGGGLVQRGDSRRLSCAASGRPFSSFAMGWFRQAPGKEREFVAGISRSAGNTDYSDSVKGRFTISRDNAKNTVYLELNNLTPEDTAVYYCAAQIAIGTGSVFQSNTQYMYWGQGIQVTVSS
notes: Llama-derived VHH
B20: M0752 (VHH)
VHH: EVQLVESGGGLVQPGGSLRLSCAASGFTFSNYGMSWVRQAPGKGLEWVSSIGSGGRITTYLDSVKGRFTISRDNAKNTLYLQMNSLKSEDTAVYYCESGGYRGQGTQVTVSS
notes: Llama-derived VHH

The target of the assay is T1, HLA-A2/MAGE-A4 complex, recombinant (HLA-A*02:01 extracellular domain, human b2m, MAGE-A4 peptide 230-239 …) (human, UniProt P04439 25-299 at identity 0.94); P61769 21-119).
T1 construct: also called MAGE-A4 pMHC; MAGE-A4/HLA-A2 complex
Briefly: phage display biopanning and screening.
With B1, the binding result is given as “binds”.
For B2, the binding result is reported as “binds”.
The value for B3 was “binds”; that for B4 was “binds”; that for B5 was “binds”.
The value for B6 was “binds”.
In the case of B7, the binding result is on record as “binds”.
Turning to B8, the binding result is reported as “binds”.
As for B9, the binding result is listed as “binds”.
The value for B10 was “binds”; that for B11 was “binds”.
The value for B12 was “binds”; that for B13 was “binds”.
The value for B14 was “binds”; that for B15 was “binds”.
Regarding B16, the binding result is “binds”.
To B17 belongs “binds”; to B18, “binds”; to B19, “binds”.
To B20 belongs “binds”.
